B1: BTBD1 (parent)
chain: TSAEIELPDVEPAAFLALLRFLYS
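Further: lentivirally expressed fusions sorted by FACS into six bins by GFP to DsRed ratio, PSI derived from sequencing read proportions per bin multiplied by bin number.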

In this data set the parent is B1. Put plainly: protein stability index of a GFP-peptide fusion (GPS, HEK-293T) (PSI 1-6); higher = more stable. The conditions noted are these: c terminus: a fixed tail appended.
Turning to TSAEIELLDVEPAAFLALLRFLYS, the protein stability index was found to be 1.26. Then TSAEIELFDVEPAAFLALLRFLYS, with 2.23; and TSAEIELSDVEPAAFLALLRFLYS, with 2.06; and TSAEIELRDVEPAAFLALLRFLYS, with 1.93.

With TSAEIELIDVEPAAFLALLRFLYS, the protein stability index worked out at 1.62. On to TSAEIELMDVEPAAFLALLRFLYS, for which the protein stability index stood at 1.9.

For the variant TSAEIELQDVEPAAFLALLRFLYS, the protein stability index came to 1.76. To TSAEIELYDVEPAAFLALLRFLYS belongs 2.37; to TSAEIELKDVEPAAFLALLRFLYS, 1.46; to TSAEIELGDVEPAAFLALLRFLYS, 1.96. Then TSAEIELVDVEPAAFLALLRFLYS, with 2.48; and TSAEIELWDVEPAAFLALLRFLYS, with 1.53; and TSAEIELHDVEPAAFLALLRFLYS, with 1.63. Consider TSAEIELNDVEPAAFLALLRFLYS, for which the protein stability index worked out at 1.92.

Regarding TSAEIELTDVEPAAFLALLRFLYS, the protein stability index is 1.74. For the variant TSAEIELPDVPPAAFLALLRFLYS, the protein stability index was found to be 1.98. Regarding TSAEIELPDVAPAAFLALLRFLYS, the protein stability index is 1.84.

Turning to TSAEIELPDVGPAAFLALLRFLYS, the protein stability index came out at 2.44.

For TSAEIELPDVQPAAFLALLRFLYS, the protein stability index was 1.56.

TSAEIELPDVDPAAFLALLRFLYS: the protein stability index was 1.69. To TSAEIELPDVFPAAFLALLRFLYS belongs 1.68; to TSAEIELPDVYPAAFLALLRFLYS, 2.14. Then TSAEIELPDVTPAAFLALLRFLYS, with 2.4; and TSAEIELPDVMPAAFLALLRFLYS, with 1.32; and TSAEIELPDVKPAAFLALLRFLYS, with 2.75. Then TSAEIELPDVLPAAFLALLRFLYS, with 1.88.

Turning to TSAEIELPDVIPAAFLALLRFLYS, the protein stability index amounted to 2.38.

For TSAEIELPDVNPAAFLALLRFLYS, the protein stability index was 2.15. To TSAEIELPDVSPAAFLALLRFLYS belongs 1.73; to TSAEIELPDVHPAAFLALLRFLYS, 1.91.

For the variant TSAEIELPDVCPAAFLALLRFLYS, the protein stability index came out at 1.1. Turning to TSAEIELPDVWPAAFLALLRFLYS, the protein stability index turned out to be 1.69. Take TSAEIELPDVVPAAFLALLRFLYS: the protein stability index worked out at 1.52. Then TSAEIELPDVRPAAFLALLRFLYS, with 2.11; and TSAEIELPDFEPAAFLALLRFLYS, with 1.82; and TSAEIELPDREPAAFLALLRFLYS, with 2.09. To TSAEIELPDSEPAAFLALLRFLYS belongs 2.78; to TSAEIELPDEEPAAFLALLRFLYS, 2.35; to TSAEIELPDWEPAAFLALLRFLYS, 1.62. Then TSAEIELPDKEPAAFLALLRFLYS, with 1.69.

On to TSAEIELPDDEPAAFLALLRFLYS, for which the protein stability index is 2.2. Then TSAEIELPDNEPAAFLALLRFLYS, with 2.08; and TSAEIELPDIEPAAFLALLRFLYS, with 1.8. In the case of TSAEIELPDLEPAAFLALLRFLYS, the protein stability index was 1.56.

For TSAEIELPDCEPAAFLALLRFLYS, the protein stability index came out at 1.67. To TSAEIELPDMEPAAFLALLRFLYS belongs 1.95; to TSAEIELPDPEPAAFLALLRFLYS, 2.32; to TSAEIELPDTEPAAFLALLRFLYS, 2.01. As for TSAEIELPDQEPAAFLALLRFLYS, the protein stability index came out at 2.22. To TSAEIELPDHEPAAFLALLRFLYS belongs 1.65. Regarding TSAEIELPDGEPAAFLALLRFLYS, the protein stability index worked out at 2.23. To TSAEIELPDAEPAAFLALLRFLYS belongs 1.8; to TSAEIELPDYEPAAFLALLRFLYS, 1.78; to TSAEIELPDVEPEAFLALLRFLYS, 1.85. To TSAEIELPDVEPDAFLALLRFLYS belongs 2.02; to TSAEIELPDVEPCAFLALLRFLYS, 1.88. Then TSAEIELPDVEVAAFLALLRFLYS, with 2.46; and TSAEIELPDVEAAAFLALLRFLYS, with 1.29. For the variant TSAEIELPDVEHAAFLALLRFLYS, the protein stability index was 2.15. Then TSAEIELPDVEYAAFLALLRFLYS, with 2.22.

On to TSAEIELPDVEKAAFLALLRFLYS, for which the protein stability index amounted to 1.61.

As for TSAEIELPDVEGAAFLALLRFLYS, the protein stability index is 1.85. To TSAEIELPDVEDAAFLALLRFLYS belongs 1.47; to TSAEIELPDVEEAAFLALLRFLYS, 2.08.

For TSAEIELPDVECAAFLALLRFLYS, the protein stability index is 2.3. Then TSAEIELPDVERAAFLALLRFLYS, with 1.93. Then TSAEIELPDVENAAFLALLRFLYS, with 1.95.

Take TSAEIELPDVEMAAFLALLRFLYS: the protein stability index came to 1.46.

For TSAEIELPDVEFAAFLALLRFLYS, the protein stability index amounted to 1.84.

In the case of TSAEIELPDVESAAFLALLRFLYS, the protein stability index was found to be 2.46. Then TSAEIELPDVEWAAFLALLRFLYS, with 1.8. Then TSAEIELPDVEQAAFLALLRFLYS, with 1.19; and TSAEIELPDVETAAFLALLRFLYS, with 1.41; and TSAEIELPDVELAAFLALLRFLYS, with 1.67. To TSAEIELPDVEIAAFLALLRFLYS belongs 2.24; to TSAEIELPGVEPAAFLALLRFLYS, 1.92; to TSAEIELPKVEPAAFLALLRFLYS, 1.98. As for TSAEIELPWVEPAAFLALLRFLYS, the protein stability index stood at 2.12. As to TSAEIELPNVEPAAFLALLRFLYS, the protein stability index was found to be 2. To TSAEIELPYVEPAAFLALLRFLYS belongs 1.33. Consider TSAEIELPQVEPAAFLALLRFLYS, for which the protein stability index stood at 2.45. Then TSAEIELPHVEPAAFLALLRFLYS, with 2.

For TSAEIELPPVEPAAFLALLRFLYS, the protein stability index was 2.4. Then TSAEIELPEVEPAAFLALLRFLYS, with 2.19; and TSAEIELPAVEPAAFLALLRFLYS, with 1.84; and TSAEIELPTVEPAAFLALLRFLYS, with 2.55. Then TSAEIELPIVEPAAFLALLRFLYS, with 1.49.

As for TSAEIELPFVEPAAFLALLRFLYS, the protein stability index was determined as 2.23. To TSAEIELPCVEPAAFLALLRFLYS belongs 1.62. To TSAEIELPVVEPAAFLALLRFLYS belongs 1.95. To TSAEIELPSVEPAAFLALLRFLYS belongs 2.12; to TSAEIELPRVEPAAFLALLRFLYS, 2.24. With TSAEIELPMVEPAAFLALLRFLYS, the protein stability index stood at 2.11. As for TSAEIELPLVEPAAFLALLRFLYS, the protein stability index is 1.63.

Source of the values: the supplement of paper PMC10567573.
